The source of these data is the supplement of paper PMC10567573.

B1: INTS3 (parent)
chain: FSDDEEDLNSKGKKREFRFHPIKE
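Note: lentivirally expressed fusions sorted by FACS into six bins by GFP to DsRed ratio, PSI derived from sequencing read proportions per bin multiplied by bin number.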

In this data set the parent is B1. The data set is described as follows: protein stability index of a GFP-peptide fusion (GPS, HEK-293T) (PSI 1-6); higher = more stable. The conditions noted are these: c terminus: a fixed tail appended.
With FSDDEEDLNSKGKKREFRFHVIKE [P21V], the protein stability index amounted to 3.88. The value for FSDDEEDLNSKGPKREFRFHPIKE [K13P] was 2.85; that for FSDDEEDLNSKGEKREFRFHPIKE [K13E] was 3.6. In the case of FSDDEEDLNSKGFKREFRFHPIKE [K13F], the protein stability index worked out at 2.44. The value for FSDDEEDLNSKGGKREFRFHPIKE [K13G] was 3.42; that for FSDDEEDLNSKGRKREFRFHPIKE [K13R] was 2.99. Consider FSDDEEDLNSKGWKREFRFHPIKE [K13W], for which the protein stability index came to 2.29. For the variant FSDDEEDLNSKGHKREFRFHPIKE [K13H], the protein stability index turned out to be 2.31.

On to FSDDEEDLNSKGMKREFRFHPIKE [K13M], for which the protein stability index worked out at 3.23. The value for FSDDEEDLNSKGTKREFRFHPIKE [K13T] was 3.11; that for FSDDEEDLNSKGIKREFRFHPIKE [K13I] was 2.31; that for FSDDEEDLNSKGVKREFRFHPIKE [K13V] was 2.11.

For the variant FSDDEEDLNSKGNKREFRFHPIKE [K13N], the protein stability index came to 3.2. The value for FSDDEEDLNSKGYKREFRFHPIKE [K13Y] was 3.02; that for FSDDEEDLNSKGSKREFRFHPIKE [K13S] was 3.06; that for FSDDEEDLNSKGQKREFRFHPIKE [K13Q] was 3.29.

FSDDEEDLNSKGAKREFRFHPIKE [K13A]: the protein stability index amounted to 3.41. Turning to FSDDEEDLNSKGCKREFRFHPIKE [K13C], the protein stability index was found to be 2.89.

As to FSDDEEDLNSKGDKREFRFHPIKE [K13D], the protein stability index worked out at 3.4. As for FSDDEEDLNSKGLKREFRFHPIKE [K13L], the protein stability index is 3.54. The value for FSDDEEDLNSKGKKREFRFYPIKE [H20Y] was 4.51; that for FSDDEEDLNSKGKKREFRFIPIKE [H20I] was 4.59; that for FSDDEEDLNSKGKKREFRFRPIKE [H20R] was 4.24. The value for FSDDEEDLNSKGKKREFRFPPIKE [H20P] was 4.86; that for FSDDEEDLNSKGKKREFRFVPIKE [H20V] was 3.92. As for FSDDEEDLNSKGKKREFRFQPIKE [H20Q], the protein stability index came out at 4.44. Regarding FSDDEEDLNSKGKKREFRFDPIKE [H20D], the protein stability index worked out at 5.39. Turning to FSDDEEDLNSKGKKREFRFTPIKE [H20T], the protein stability index is 4.59. Consider FSDDEEDLNSKGKKREFRFSPIKE [H20S], for which the protein stability index came to 5.18. As for FSDDEEDLNSKGKKREFRFLPIKE [H20L], the protein stability index stood at 5.1.

As for FSDDEEDLNSKGKKREFRFFPIKE [H20F], the protein stability index came to 3.94. As to FSDDEEDLNSKGKKREFRFMPIKE [H20M], the protein stability index was determined as 4.83. The value for FSDDEEDLNSKGKKREFRFEPIKE [H20E] was 5.28; that for FSDDEEDLNSKGKKREFRFGPIKE [H20G] was 4.34.

With FSDDEEDLNSKGKKREFRFKPIKE [H20K], the protein stability index was determined as 5.13. On to FSDDEEDLNSKGKKREFRFCPIKE [H20C], for which the protein stability index came to 4.31.

In the case of FSDDEEDLNSKGKKREFRFAPIKE [H20A], the protein stability index worked out at 4.58. The value for FSDDEEDLNSKGKKREFRFWPIKE [H20W] was 4.31. With FSDDEEDLNSKGKKREFRFNPIKE [H20N], the protein stability index was found to be 4.69. The value for FSDDEEDLNSKGKKREFSFHPIKE [R18S] was 4.12. The value for FSDDEEDLNSKGKKREFNFHPIKE [R18N] was 5.14; that for FSDDEEDLNSKGKKREFLFHPIKE [R18L] was 4.57.

FSDDEEDLNSKGKKREFKFHPIKE [R18K]: the protein stability index was 4.63.

On to FSDDEEDLNSKGKKREFPFHPIKE [R18P], for which the protein stability index turned out to be 4.76. The value for FSDDEEDLNSKGKKREFVFHPIKE [R18V] was 4.56. The value for FSDDEEDLNSKGKKREFFFHPIKE [R18F] was 3.27. In the case of FSDDEEDLNSKGKKREFWFHPIKE [R18W], the protein stability index came to 3.35. The value for FSDDEEDLNSKGKKREFHFHPIKE [R18H] was 4.85. With FSDDEEDLNSKGKKREFCFHPIKE [R18C], the protein stability index was determined as 4.57. The value for FSDDEEDLNSKGKKREFIFHPIKE [R18I] was 4.55; that for FSDDEEDLNSKGKKREFEFHPIKE [R18E] was 5.1. In the case of FSDDEEDLNSKGKKREFYFHPIKE [R18Y], the protein stability index turned out to be 4.36. FSDDEEDLNSKGKKREFTFHPIKE [R18T]: the protein stability index turned out to be 4.64. For FSDDEEDLNSKGKKREFMFHPIKE [R18M], the protein stability index was found to be 4.9. Regarding FSDDEEDLNSKGKKREFDFHPIKE [R18D], the protein stability index is 4.94. The value for FSDDEEDLNSKGKKREFQFHPIKE [R18Q] was 5.2.

Take FSDDEEDLNSKGKKREFGFHPIKE [R18G]: the protein stability index amounted to 4.77. Take FSDDEEDLNSKGKKREFAFHPIKE [R18A]: the protein stability index stood at 4.33.

Consider FSDDEEDLNSKGKDREFRFHPIKE [K14D], for which the protein stability index came out at 3.73.

On to FSDDEEDLNSKGKRREFRFHPIKE [K14R], for which the protein stability index came out at 2.88.

With FSDDEEDLNSKGKVREFRFHPIKE [K14V], the protein stability index was 2.03. The value for FSDDEEDLNSKGKNREFRFHPIKE [K14N] was 3.27; that for FSDDEEDLNSKGKFREFRFHPIKE [K14F] was 2.13. The value for FSDDEEDLNSKGKMREFRFHPIKE [K14M] was 1.41; that for FSDDEEDLNSKGKIREFRFHPIKE [K14I] was 1.88; that for FSDDEEDLNSKGKSREFRFHPIKE [K14S] was 3.79. The value for FSDDEEDLNSKGKCREFRFHPIKE [K14C] was 2.66.

For FSDDEEDLNSKGKLREFRFHPIKE [K14L], the protein stability index came out at 2.11.

For FSDDEEDLNSKGKTREFRFHPIKE [K14T], the protein stability index worked out at 3.46.

Regarding FSDDEEDLNSKGKHREFRFHPIKE [K14H], the protein stability index came out at 2.86. The value for FSDDEEDLNSKGKEREFRFHPIKE [K14E] was 3.44. The value for FSDDEEDLNSKGKAREFRFHPIKE [K14A] was 3.01. The value for FSDDEEDLNSKGKPREFRFHPIKE [K14P] was 3.46; that for FSDDEEDLNSKGKWREFRFHPIKE [K14W] was 1.53. As to FSDDEEDLNSKGKQREFRFHPIKE [K14Q], the protein stability index was found to be 3.1. In the case of FSDDEEDLNSKGKGREFRFHPIKE [K14G], the protein stability index was 2.96.

Take FSDDEEDLNSKGKYREFRFHPIKE [K14Y]: the protein stability index worked out at 2.48.

FSDDEEDLNSKWKKREFRFHPIKE [G12W]: the protein stability index was determined as 2.11. The value for FSDDEEDLNSKYKKREFRFHPIKE [G12Y] was 2.4; that for FSDDEEDLNSKVKKREFRFHPIKE [G12V] was 2.1; that for FSDDEEDLNSKNKKREFRFHPIKE [G12N] was 2.83. The value for FSDDEEDLNSKPKKREFRFHPIKE [G12P] was 2.98; that for FSDDEEDLNSKSKKREFRFHPIKE [G12S] was 2.65. For FSDDEEDLNSKMKKREFRFHPIKE [G12M], the protein stability index stood at 2.58.

In the case of FSDDEEDLNSKTKKREFRFHPIKE [G12T], the protein stability index worked out at 2.44.

Regarding FSDDEEDLNSKRKKREFRFHPIKE [G12R], the protein stability index amounted to 2.14. The value for FSDDEEDLNSKQKKREFRFHPIKE [G12Q] was 3.2; that for FSDDEEDLNSKGKKREFRFHPGKE [I22G] was 2.98; that for FSDDEEDLNSKGKKREFRFHPFKE [I22F] was 2.12. As to FSDDEEDLNSKGKKREFRFHPDKE [I22D], the protein stability index was 3.98.

As to FSDDEEDLNSKGKKREFRFHPAKE [I22A], the protein stability index turned out to be 2.88. For FSDDEEDLNSKGKKREFRFHPEKE [I22E], the protein stability index is 3.89. With FSDDEEDLNSKGKKREFRFHPCKE [I22C], the protein stability index is 2.48. For FSDDEEDLNSKGKKREFRFHPHKE [I22H], the protein stability index is 2.91.
